Experimental data from article PMC3969220, “N-terminus oligomerization is conserved in intracellular calcium release channels” (Biochemical Journal, 2014).
“And” between values parts separate entries of the source, which are not always exact repeats. Equal values may be shown once. Each block holds one molecule with its values, some of them ahead of it.

Experiments:
[1] = target: IP3R1 N-terminal domain (residues 1–667, human IP3R1/SI− co-ordinates), c-Myc- or HA-tagged, in HEK-293 cells (human); test: cross-linking; HEK-293 cell homogenates expressing c-Myc-tagged IP3R1 1-667 constructs, pre-treated with 10 mM DTT, without or with 1 or 10 μM IP3, incubated with glutaraldehyde for the indicated times; SDS/PAGE (6% gels), anti-c-Myc Western blot
[2] = target: IP3R1^(1–667, K493A), IP3 binding-deficient mutant, c-Myc-tagged, in HEK-293 cells (human); test: as above
[3] = target: calpain-cleaved ~150 kDa N-terminal fragment of native RyR1 from rabbit skeletal muscle SR (rabbit (endogenous in skeletal muscle SR)); test: cross-linking; rabbit skeletal muscle SR pre-treated with 10 mM DTT, cleaved with calpain-2, centrifuged; resuspended SR pellet incubated with 0.0025% glutaraldehyde; SDS/PAGE (4% gels), Western blot with Ab2142
[4] = target: calpain-cleaved ~150 kDa N-terminal fragment of native RyR1 from rabbit skeletal muscle SR (rabbit (endogenous in skeletal muscle SR)); test: cross-linking; rabbit skeletal muscle SR pre-treated with 10 mM DTT, cleaved with calpain-2, centrifuged; supernatant (liberated N-terminal fragment only) incubated with 0.0025% glutaraldehyde; SDS/PAGE (4% gels), Western blot with Ab2142
[5] = target: the molecule itself; test: cross-linking; HEK-293 cell homogenates expressing c-Myc-tagged BT4LR1 or BT4LR3, pre-treated without or with 10 mM DTT, incubated with glutaraldehyde for the indicated times; SDS/PAGE (6% gels), anti-c-Myc Western blot
[6] = target: the molecule itself; test: not stated; unpublished work (M. Seidel and S. Zissimopoulos)

B1: c-Myc-tagged RyR1 N-terminal fragment (residues 1–915), BT4LR1, in HEK-293 cells (domain or fragment, rabbit, UniProt P11716 1-915, looked up)
chain: MGDGGEGEDEVQFLRTDDEVVLQCSATVLKEQLKLCLAAEGFGNRLCFLEPTSNAQNVPPDLAICCFTLEQSLSVRALQEMLANTVEAGVESSQGGGHRTLLYGHAILLRHAHSRMYLSCLTTSRSMTDKLAFDVGLQEDATGEACWWTMHPASKQRSEGEKVRVGDDLILVSVSSERYLHLSTASGELQVDASFMQTLWNMNPICSCCEEGYVTGGHVLRLFHGHMDECLTISAADSDDQRRLVYYEGGAVCTHARSLWRLEPLRISWSGSHLRWGQPLRIRHVTTGRYLALTEDQGLVVVDACKAHTKATSFCFRVSKEKLDTAPKRDVEGMGPPEIKYGESLCFVQHVASGLWLTYAAPDPKALRLGVLKKKAILHQEGHMDDALFLTRCQQEESQAARMIHSTAGLYNQFIKGLDSFSGKPRGSGPPAGPALPIEAVILSLQDLIGYFEPPSEELQHEEKQSKLRSLRNRQSLFQEEGMLSLVLNCIDRLNVYTTAAHFAEYAGEEAAESWKEIVNLLYELLASLIRGNRANCALFSTNLDWVVSKLDRLEASSGILEVLYCVLIESPEVLNIIQENHIKSIISLLDKHGRNHKVLDVLCSLCVCNGVAVRSNQDLITENLLPGRELLLQTNLINYVTSIRPNIFVGRAEGSTQYGKWYFEVMVDEVVPFLTAQATHLRVGWALTEGYSPYPGGGEGWGGNGVGDDLYSYGFDGLHLWTGHVARPVTSPGQHLLAPEDVVSCCLDLSVPSISFRINGCPVQGVFEAFNLDGLFFPVVSFSAGVKVRFLLGGRHGEFKFLPPPGYAPCHEAVLPRERLRLEPIKEYRREGPRGPHLVGPSRCLSHTDFVPCPVDTVQIVLPPHLERIREKLAENIHELWALTRIEQGWTYGPVRDDNKRLHPCLVNFHSLPE
notes: ryanodine receptor 1 (RyR1), rabbit, residues 1-915; also called c-Myc–BT4LR1
stoichiometry N [5]: 4

B2: c-Myc-tagged RyR3 N-terminal fragment (residues 1–911), BT4LR3, in HEK-293 cells (domain or fragment, rabbit, UniProt Q9TS33 1-911, looked up)
chain: MAEGGEGGEDEIQFLRTEDEVVLQCIATVHKEQRKFCLAAEGLGNRLCFLEPTSEAKFIPPDLCVCNFVLEQSLSVRALQEMLANTGENGGEGAAQGGGHRTLLYGHAILLRHSFSGMYLTCLTTSRSQTDKLAFDVGLREHATGEACWWTIHPASKQRSEGEKVRIGDDLILVSVSSERYLHLSISNGNIQVDASFMQTLWNVHPTCSGSSIEEGYLLGGHVVRLFHGHDECLTIPSTDQNDSQHRRIFYEAGGAGTRARSLWRVEPLRISWSGSNIRWGQAFRLRHLTTGHYLALTEDQGLLLQDRGKADTKSTAFSFRPSKETKEKLDSSHKRDIEGMGVPEIKYGDSVCFVQHIASGLWVTYKAQDAKTSRLGPLKRKVILHQEGHMDDGLTLQRCQREESQAARIIRNTTALFSQFVSGNNRTAAPVTLPIEEVLQTLHDLIAYFQPPEEEMQHEDKQNKLRSLKNRQNLFKEEGMLALVLNCIDRLNIYNSVAHFAGIAREESGMAWKEVLSLLYKLLAALIRGNRNTCAQFSNNLDWLISKLDRLESSSGILEVLHCILIESPEALNLIAEGHIKSIISLLDKHGRNHKVLDVLCSLCLCNGVAVRANQNLICDNLLPRRNLLLQTRLINDVTSIRPNIFLGVAEGSAQYKKWYFELIIDQVDPFLTAEPTHLRVGWASSSGYAPYPGGGEGWGGNGVGDDLYSYGFDGLHLWSGRIPRAVASINQHLLKSDDVVSCCLDLGVPSISFRINGQPVQGMFENFNTDGLFFPVMSFSAGVKVRFLMGGRHGEFKFLPPSGYAPCYEALLPKEKMRLEPVKEYKRDAEGVRDLLGTTQFLSQASFIPCPIDTSQVVLPPHLEKIRDRLAENIHELWGMNKIELGWTFGKMRDDNKRQHPCLVEFSKL
notes: ryanodine receptor 3 (RyR3), rabbit, residues 1-911; also called c-Myc–BT4LR3
stoichiometry N [5]: 4

B3: truncated RyR2 N-terminal fragment (residues 1–654), of the unpublished observation (domain or fragment, human, UniProt Q92736 1-654, looked up)
chain: MADGGEGEDEIQFLRTDDEVVLQCTATIHKEQQKLCLAAEGFGNRLCFLESTSNSKNVPPDLSICTFVLEQSLSVRALQEMLANTVEKSEGQVDVEKWKFMMKTAQGGGHRTLLYGHAILLRHSYSGMYLCCLSTSRSSTDKLAFDVGLQEDTTGEACWWTIHPASKQRSEGEKVRVGDDLILVSVSSERYLHLSYGNGSLHVDAAFQQTLWSVAPISSGSEAAQGYLIGGDVLRLLHGHMDECLTVPSGEHGEEQRRTVHYEGGAVSVHARSLWRLETLRVAWSGSHIRWGQPFRLRHVTTGKYLSLMEDKNLLLMDKEKADVKSTAFTFRSSKEKLDVGVRKEVDGMGTSEIKYGDSVCYIQHVDTGLWLTYQSVDVKSVRMGSIQRKAIMHHEGHMDDGISLSRSQHEESRTARVIRSTVFLFNRFIRGLDALSKKAKASTVDLPIESVSLSLQDLIGYFHPPDEHLEHEDKQNRLRALKNRQNLFQEEGMINLVLECIDRLHVYSSAAHFADVAGREAGESWKSILNSLYELLAALIRGNRKNCAQFSGSLDWLISRLERLEASSGILEVLHCVLVESPEALNIIKEGHIKSIISLLDKHGRNHKVLDVLCSLCVCHGVAVRSNQHLICDNLLPGRDLLLQTRLVNHVSS
notes: may be the same construct as m10
stoichiometry N [6]: 4

Other lines, results leading:

stoichiometry N [1]: 4
Molecule: IP3R1 N-terminal domain (residues 1–667, human IP3R1/SI− co-ordinates), c-Myc- or HA-tagged, in HEK-293 cells (domain or fragment)

stoichiometry N [2]: 4
Molecule: IP3R1^(1–667, K493A), IP3 binding-deficient mutant, c-Myc-tagged, in HEK-293 cells (domain or fragment)

stoichiometry N [3]: 2 and 3 and 4
stoichiometry N [4]: 2 and 3 and 4
Molecule: calpain-cleaved ~150 kDa N-terminal fragment of native RyR1 from rabbit skeletal muscle SR (domain or fragment)
